± gives the uncertainty stated by the source.
assay: amyloid nucleation score (Sup35N fusion, yeast selection) (log enrichment); library NNK1; higher = more nucleation; inactive = no reads after selection
Method in brief: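 The nucleation score, computed with DiMSum, is the log enrichment of output over input reads, centred on the mode score of non-aggregating sequences. Sequences with under 100 input reads were dropped. Reads were generated by Illumina sequencing of plasmid inserts from psi-negative yeast with Sup35N fused to peptides of 20 random codons, induced with 100 μM copper sulfate for 24 hours and grown 7 days at 30°C on medium lacking adenine and uracil.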

Substance | amyloid nucleation score
SYECVQNRQCAIGGNRSERF | 0.666 ± 0.93
CSGNRMDPLTVRLFVGLGIL | 0.347 ± 0.43
KLVDAGFVD | 0.759 ± 0.35
HRLDLSCSWNMNKVRGDWCS | -0.058 ± 0.27
IGFML | 1.69 ± 0.32
RSVPLFDHPWNRVTLRFSIL | 0.714 ± 0.47
HPRMCWVPVISIIPLLSVMA | 0.185 ± 0.41
TSCEGEDFGRKLSREMVLWC | 0.234 ± 0.68
LFAIKYCDVSD | 0.286 ± 0.43
VSCGDELVGDRI | 0.171 ± 0.36
CFIIIQPCANGWWYRCRSCV | -0.236 ± 0.38
HKFVRIDGEN | 1.54 ± 0.84
IKDTGYYLHMIEQPDTLNLW | 0.651 ± 0.53
LSFNSTSPEIIRTVVMAWC | -1.54 ± 1.7
FIIEQANGQGYNYLHI | -0.481 ± 0.48
VPSSTVVDHSIYRGDMPSFA | 0.163 ± 0.41
SNIWSSKKINTCLGM | 1.7 ± 0.16
SGQTYGNFFGEAFWYECA | 0.19 ± 1.4
MMTGFNNIPTIKQLGSCAHY | 0.291 ± 0.97
APRCKSIWS | -0.706 ± 0.59
RFYIMYLSGCAKTSFCGFVS | 6.4 ± 0.079
NTQTFEAFSKSFMDLIVRRF | -0.735 ± 1.2
VFADVISIKMNCTLLTSILL | 0.823 ± 0.37
NVVWAYSMAFMTSAFSVNYP | inactive
FDYPDGDVVVNKFDSDVCYR | 0.616 ± 0.84

Substance | amyloid nucleation score
LMFKGEYCWLVIWQGLTWGV | 0.278 ± 0.52
ISSQFGAKTIFPRSVPPQAI | -0.562 ± 0.35
RVLLSSVSDM | -0.766 ± 2.4
FWLFSGLCNRFNTGYDFLKS | 1.12 ± 0.48
MEFNMWYLFGDLLVTLDWPK | 0.044 ± 0.45
HCWFRSWPWTISK | -0.913 ± 1.5
IGACVMQVNLCQSSGVSSYL | 5.72 ± 0.062
KNSLTTKVLLCTLAATL | 0.603 ± 0.73
QCRERLYPHPGLI | 1.01 ± 0.37
WSCTSCFNYGLF | 7.178 ± 0.052
TFTCSFTQLRQLFFFVSQGC | 0.214 ± 0.46
IWMTGVLLNP | -0.223 ± 0.29
RGINSFLMSFALCWAHWRGV | -0.072 ± 0.37
LVITIDARRVAVTLIYMKMR | 2.37 ± 0.15
VDRQFTDEFKVFTEGTKVDE | -0.5 ± 1.4
WINFMSQWDPLGRQYVWHIQ | 1.81 ± 0.36
VPRVYMFKFGIILFFYMHKA | -0.273 ± 0.3
VITIGMFCRIIEGHYVMYLT | 0.089 ± 0.47
TYPYYVTVGGIS | 0.113 ± 0.43
YVMDMIYFYDGLVWSCLCWI | inactive
RMGVA | 0.644 ± 0.92
MWVYFVLCKKVAEGVCFIDT | 0.996 ± 0.61
HLSYI | -0.455 ± 1.7
HHVIRVDIMMFVVKSSELYN | inactive
ISLGCNDSGLRIG | -0.935 ± 0.84

Substance | amyloid nucleation score
MLTRLHVSLSCHFYLWRSL | 0.838 ± 0.56
IASVWFRCFHRNRLVWSLRR | 0.214 ± 0.44
RCDNAQLHIFVHLFRSVSDM | inactive
ATCPLYEVLSCYARVKFANT | -0.357 ± 0.33
ELKLLSNAFGMQGIWIRRVV | -0.113 ± 0.32
IVCFM | -0.377 ± 0.6
IKWYAY | 0.952 ± 0.68
ILFRVVSRVGISRYGWKRVL | -0.241 ± 0.83
TKNSLGHNMLIDWGSCVGGC | 1.23 ± 0.31
TLVFYRVQGFGIPKSQLTGE | -0.675 ± 1.1
KSVAIAPYDGCVMFSKQTWG | -0.025 ± 0.63
WISKWHYGAQSSARSKYARI | 0.864 ± 0.47
TGSLLTSTWS | -0.474 ± 0.78
VWWHYLSLYAIWYSYVRLYV | -0.097 ± 0.52
AGMCSIC | 0.155 ± 0.36
SNEVEGLFLKLYNFVPVRQW | 0.148 ± 0.26
GYNGCYNIFVHRSDKMAALR | 0.515 ± 0.59
ILHWEKRDSTVKILSLSIHW | 0.385 ± 0.46
YSLAMRLVPGPPQDENHTVN | -1.94 ± 1.8
LIQWENGTH | -0.672 ± 0.34
ILFFDVSSQGRTEDKVRNLG | 0.088 ± 0.69
KLFSWADHGGEGFEWMQLTT | -0.026 ± 0.3
EGQTGLLVWYGSHSVRLGNF | -0.957 ± 2.4
CFCFFIVSPMMF | 3.89 ± 0.056
NFLCFGFFRWTVPDWAQFYV | 3.76 ± 0.12

Substance | amyloid nucleation score
FWRGDRLVMSFEE | -0.285 ± 0.83
RHLRVTFNSLSWRKMKAGVV | -0.314 ± 0.86
AFAFEYCRTSRIFCQGMEWQ | 1.05 ± 0.6
FRSFNGTCSGVQWSVFVIWV | -0.18 ± 0.77
TFLGLAGSHCLFSFVANSAR | 1.24 ± 0.28
LTLFLCISRLPGTPTLYWVL | 0.752 ± 0.62
MHLCINWSLSCRAADQFMRR | 3.53 ± 0.17
PAVAGEWNARMGWEATRYKA | 0.669 ± 0.56
VRNETSCTAIVFRSE | 0.14 ± 0.22
GQHSFGAECTVQSCGWGCRW | 1.33 ± 0.34
LSVNWFGCTWQNHKEGIGRN | 1.79 ± 0.12
TVLTTTHFARSVFTLPGKSP | 2.89 ± 0.17
ASLTDVYIDELRLSNEGTWN | 1.94 ± 0.65
DSSMWFTASLYSYVLLSLNL | 0.73 ± 0.36
YGHLVYTDHVWRRFETVKG | 0.661 ± 0.84
MCVILVELYQRGSWYTRKVM | -0.206 ± 1.1
PWDYVSLSI | -0.424 ± 0.73
MVQAPLTSQPYNNGMVRQK | -0.055 ± 0.5
NGMIFFVIGMNFGCQESSRN | 6.208 ± 0.051
FMCIPV | 0.189 ± 0.55
RRREKHAMDPELRARGQQ | -0.106 ± 0.73
QTRWWEYHHNLFVLQITFGG | 1.04 ± 0.27
LSIGFGNPVAS | -0.312 ± 0.29
FTSAASQFRVMSGQSNSKYP | -1.2 ± 2.4
NSVVRVIKRSWRTVVLLHDR | -0.621 ± 1.4

Substance | amyloid nucleation score
NFLMKWCEINTCLLVSFSYW | 4.5 ± 0.071
QANVDCNVHPVTRML | 0.085 ± 0.46
LRKWSERGPWP | 0.048 ± 0.46
LKVRLNESIICYAMRVKHIC | 0.345 ± 0.36
MLVCDWKTDLGNI | 0.811 ± 0.64
NRLGLGPVSSICGR | -0.339 ± 0.81
KAFATMLNRLEVGTLGRG | -1.36 ± 1.9
IESMVYITPCIEGIRWNWEK | 0.122 ± 0.36
YMASEG | inactive
HLSLVNFCMSVSLESWYEWM | 0.819 ± 0.44
TSWFAFANWVLPSFHYTPVP | 0.43 ± 0.43
GGKAIIQCLEW | -0.362 ± 1.2
LTLFEPLMRDCYICSYFNFF | 7.047 ± 0.053
IVRNGQATWSWILRGPSWVG | -1.32 ± 0.48
EGRSWLGTESGLYGNVREND | 0.577 ± 0.68
RPSTLCFTIIRVYKLSRSPT | 2.65 ± 0.074
GANKTWCYKSSQCVISDGLG | -0.103 ± 0.66
ELLYGWGIP | -0.723 ± 0.76
LSAEFGSMLRLLCH | inactive
RGVARWRCGNKICNA | 0.078 ± 0.47
TSSEFDLLNGQFANGYVLVH | 0.546 ± 0.5
NQCYYRAGLFRVDLFCLELA | inactive
SHADVR | -0.027 ± 0.83
WTYRQLKSAGKEHVYFLKVR | -0.031 ± 1.2
TSRNW | -0.626 ± 1.1

Substance | amyloid nucleation score
FFGCFGLYYAMAHLLYPSLE | 1.48 ± 0.8
HVPSFRFFFRDNLI | 0.385 ± 0.46
IGQLHFIEITNMREGHPFLA | 0.53 ± 0.63
HKSILVDVILSHFSSCSRCH | 5.3 ± 0.074
SCKPGPIVSLDFVFVVYPWE | 0.002 ± 0.9
LNISMFHSNSSHTTEEVTHH | 1.32 ± 0.19
SYGLWHMAM | -0.232 ± 0.54
YFDWLGCLLTWQRKYVQT | -0.048 ± 0.93
MGVVRLAS | -0.149 ± 0.27
VCLPSGLFINLGVWYAAQHH | 6.51 ± 0.069
EPYSLAIKGVHTLLRGSRKS | 0.571 ± 0.29
SAVGAIDANIYKSDGYSWG | -0.879 ± 0.58
PNFMMIWWVSTLRHNFTGLC | 2.19 ± 0.31
VMYVPPMACSLS | -0.315 ± 0.77
MCNVGTVRAYSLIQGGIRQC | 0.373 ± 0.34
CIRVWCLILSRSWGFTPANC | 1.18 ± 0.9
SNMLHWSVRMGHGWW | 0.184 ± 1
VSKSYPIPCISKVS | 0.336 ± 0.52
PLLFKGYNAHRPNLVLTTML | -0.143 ± 1.7
EAIISNCNFVIQIMCYHYTA | inactive
QSVCSTCSRGPSHCAAGSV | 0.17 ± 0.31
ACARTTDIFV | -1 ± 1.1
SYAMLCIYVGYFIFLNSRMS | inactive
TFPGEWHWERTIVIVPNFFH | 2.03 ± 0.15
AHTSYYTMSTSRTADGVKIS | 0.028 ± 0.31

Substance | amyloid nucleation score
NKSVNLEYGRWVNMVPGLM | inactive
VQADFFCSAPGHCIWVNGMR | 1.73 ± 0.31
SGYWAPINLTGVMDS | 0.053 ± 1.1
ASKFYHFRTQEYTS | 0.212 ± 0.28
GRAFG | -0.557 ± 2.1
TVAFSVTTVDR | -0.875 ± 2.4
GSLIIHHQWFFVIAMRVSLS | 0.419 ± 0.53
ISCKWYNHISSRLNFMWHAK | 0.394 ± 0.88
MYFVRVSSDA | 0.351 ± 0.54
ITFTHDNISYKIRTPFAKSL | 1.55 ± 0.26
LRDTFPVLLAILCMNIINNC | -0.14 ± 0.29
LSIILRNVMCNIFSSNLITH | 0.973 ± 0.16
AYAGLRCVGSDVIAGKTVAN | 0.684 ± 1.2
EGWPTSTLSLSRYALLGSPR | -0.486 ± 0.66
PGRTLIVFFCVVVCQCEDNR | 1.44 ± 0.5
SCLMY | inactive
DIRNLLTWSISDVVTVRKIG | -0.643 ± 0.33
DRRGRRYKVRRVCMVMESLG | 0.703 ± 0.58
GDFKTRLFSCLDSRLILGRG | -0.485 ± 1.5
CQELYLKFVVENFSTFLRNH | -2.68 ± 2.7

— the supplement of paper PMC12042874
